Substitutions are numbered along the chain they refer to. Names may count otherwise.
B1: reference antibody 371 (murine/human chimeric) (antibody, V domains shown)
VH: QVQLQQSGAELVRPGASVTLSCKASGYTFAGFEMHWIKQTPVHGLGWIGAIDPKTGGTDYNQKFKDKALLTADKSSNTAYMELRSLTSEDSAVYYCTRDLGYFDVWGTGTTVTVSS
VL: DIQMTQTTSSLSASLGDRVTISCRASQDIRSNLNWYQQKPDGTVKLLIYYTSRLHSGVPSRFSGSGSGTDYSLTISNLEQEDIATYFCQQSEKLPRTFGGGTKLEIRR
B2: humanized anti-CD137 antibody clone 3712 (IgG4 S228P/kappa) (antibody, V domains shown)
VH: QVQLVQSGAEVKKPGASVKVSCKASGYTFAGFEMHWVRQAPGQGLEWMGAIDPKTGGTDYNQKFKDRVTMTRDTSISTAYMELSRLRSDDTAVYYCARDLGYFDVWGQGTLVTVSS
VL: DIQMTQSPSSLSASVGDRVTITCRASQDIRSNLNWYQQKPGGAVKLLIYYTSRLHSGVPSRFSGSGSGTDYTLTISSLQPEDFATYFCQQSEKLPRTFGGGTKVEIRR
B3: humanized anti-CD137 antibody clone 3711 (IgG4 S228P/kappa) (antibody, V domains shown)
VH: B2 VH
VL: B2 VL with G42K, V44P, Y71F, F87Y
B4: humanized anti-CD137 antibody clone 3715 (IgG4 S228P/kappa) (antibody, V domains shown)
VH: B2 VH with K12V, E46G, R72A, A97T
VL: B2 VL
B5: humanized anti-CD137 antibody clone 3714 (IgG4 S228P/kappa) (antibody, V domains shown)
VH: B2 VH with K12V, E46G, R72A, A97T
VL: B2 VL with G42K, V44P, Y71F, F87Y
B6: humanized anti-CD137 antibody clone 3718 (IgG4 S228P/kappa) (antibody, V domains shown)
VH: B2 VH with K12V, V20L, V37I, E46G, M48I, V68A, M70L, R72A, A97T
VL: B2 VL
B7: humanized anti-CD137 antibody clone 3717 (IgG4 S228P/kappa) (antibody, V domains shown)
VH: B2 VH with K12V, V20L, V37I, E46G, M48I, V68A, M70L, R72A, A97T
VL: B2 VL with G42K, V44P, Y71F, F87Y
B8: humanized anti-CD137 antibody clone 3716 (IgG4 S228P/kappa) (antibody, V domains shown)
VH: B2 VH with K12V, E46G, R72A, A97T
VL: B2 VL with V104L
B9: humanized anti-CD137 antibody clone 3713 (IgG4 S228P/kappa) (antibody, V domains shown)
VH: B2 VH
VL: B2 VL with V104L
B10: humanized anti-CD137 antibody clone 3719 (IgG4 S228P/kappa) (antibody, V domains shown)
VH: B2 VH with K12V, V20L, V37I, E46G, M48I, V68A, M70L, R72A, A97T
VL: B2 VL with V104L

target: T1, CD137 protein (UniProt Q07011 24-186, limits assumed); assay: competition ELISA with CD137L: CD137 receptor coated, antibody titrated, CD137L added; A450-A620 falls with the antibody concentration (midpoint of an inhibition curve, called EC50 in the sheet's table)
T1 construct: also called CD137 antigen; CD137 receptor
Protocol: CD137 receptor was diluted in DPBS to 1 μg/mL, and then coated onto an ELISA plate (Corning, Catalog number: 9018, high binding) with a volume of 50 μL (0.05 μg) per well, and incubated at 4° C. overnight. The plate was decanted and washed once; assay diluent was added 200 μL/well. […] The diluted CD137 receptor was added to the assay plate, 50 μL/well, in duplicate. The plate was incubated one hour at room temperature. […] The plate was incubated one hour at room temperature and then washed three times with PBST. Goat anti-human IgG-H+L HRP conjugated at 1:100,000 20 dilution was added to the plate at 100 μL/well. The plate was then incubated one hour at room temperature followed by washing with PBST four times. The TMB substrate solution was added at 100 μL/well. The color was allowed to develop for 15 minutes, and was stopped with 100 μL/well 2N H2SO4. Absorbance at 450 nm and 620 nm was determined by a Tecan F200 Pro reader.

Row | EC50 | Binder
1 | 0.101 mg/L | B1

target: T1, CD137 protein; assay: BLI (Octet Red 96); reference apparently the parental chimeric antibody 371
Protocol: (§1) The chimeric and humanized antibodies were tested in an antigen binding assay on Octet Red 96 to estimate binding kinetics. Antibodies were loaded onto anti-human Fc (AHC) biosensors. Loaded sensors were dipped into a serial dilution of CD137 protein (300 nM, 1:3 down, 7 points) in assay buffer (PBS with 0.1% BSA, 0.02% Tween-20 (pH 7.2)).

Row | fold higher off-rate | Binder
2 | 3 fold | B2

target: T1, CD137 protein; assay: BLI (Octet Red 96), antibody on anti-human Fc sensors, CD137 protein in solution, 1:1 model
Protocol: as §1

Row | Kd | koff | kon | Binder
3 | 3.9 nM | 0.0011 s⁻¹ | 280000 M⁻¹ s⁻¹ | B1
4 | 2.4 nM | 0.00046 s⁻¹ | 190000 M⁻¹ s⁻¹ | B3
5 | 10 nM | 0.0031 s⁻¹ | 310000 M⁻¹ s⁻¹ | B2

target: T1, CD137 protein; assay: as above; remark: another data set of the same source
Protocol: as §1, with “KD Measurements of CD137 Antigen Binding were made according to the protocol described in Example 2 above. The” for “The”, “antigen-binding” for “antigen binding”

Row | Kd | koff | kon | Binder
6 | 3.9 nM | 0.0011 s⁻¹ | 280000 M⁻¹ s⁻¹ | B1
7 | 5.9 nM | 0.0018 s⁻¹ | 310000 M⁻¹ s⁻¹ | B4
8 | – | < 1e-07 s⁻¹ | 130000 M⁻¹ s⁻¹ | B5
9 | 8.3 nM | 0.0026 s⁻¹ | 310000 M⁻¹ s⁻¹ | B6
10 | 2.5 nM | 0.00046 s⁻¹ | 190000 M⁻¹ s⁻¹ | B3
11 | 2.3 nM | 0.00034 s⁻¹ | 150000 M⁻¹ s⁻¹ | B7
12 | 7 nM | 0.0022 s⁻¹ | 320000 M⁻¹ s⁻¹ | B8
13 | 3.8 nM | 0.0011 s⁻¹ | 290000 M⁻¹ s⁻¹ | B9
14 | 8.5 nM | 0.0026 s⁻¹ | 310000 M⁻¹ s⁻¹ | B10
15 | 10 nM | 0.0031 s⁻¹ | 310000 M⁻¹ s⁻¹ | B2
